{"source": "patent US6340461B1", "about": "(priority 1996, dated 2002)", "key": {"[1]": {"design": "species or system baboons", "settings": "in vivo, sc"}, "[2]": {"design": "species or system New Zealand white rabbits", "settings": "rabbit, in vivo"}, "[3]": {"molecular_target": "T cell receptor Vβ11 on murine tumor-draining lymph node T cells (mouse)", "test": "cell-based or functional assay"}, "[4]": {"molecular_target": "T cell receptor Vβ12 on murine tumor-draining lymph node T cells (mouse)", "test": "cell-based or functional assay"}, "[5]": {"molecular_target": "T cell receptor Vβ17 on murine tumor-draining lymph node T cells (mouse)", "test": "cell-based or functional assay"}, "[6]": {"molecular_target": "T cell receptor Vβ2 on murine tumor-draining lymph node T cells (mouse)", "test": "cell-based or functional assay"}, "[7]": {"molecular_target": "T cell receptor Vβ6 on murine tumor-draining lymph node T cells (mouse)", "test": "cell-based or functional assay"}, "[8]": {"molecular_target": "T cell receptor Vβ14 on murine tumor-draining lymph node T cells (mouse)", "test": "cell-based or functional assay"}, "[9]": {"molecular_target": "T cell receptor Vβ3 on murine T cells (mouse)", "test": "cell-based or functional assay"}, "[10]": {"molecular_target": "T cell receptor Vβ8.2 on murine T cells (mouse)", "test": "cell-based or functional assay"}, "[11]": {"molecular_target": "T cell receptor Vβ9 on murine tumor-draining lymph node T cells (mouse)", "test": "cell-based or functional assay"}, "[12]": {"molecular_target": "T cell receptor Vβ5.1, 5.2 on murine tumor-draining lymph node T cells (mouse)", "test": "cell-based or functional assay"}, "[13]": {"molecular_target": "T cell receptor Vβ7 on murine tumor-draining lymph node T cells (mouse)", "test": "cell-based or functional assay"}, "[14]": {"molecular_target": "T cell receptor Vβ13 on murine tumor-draining lymph node T cells (mouse)", "test": "cell-based or functional assay"}, "[15]": {"molecular_target": "T cell receptor Vβ8.3 on murine T cells (mouse)", "test": "cell-based or functional assay"}, "[16]": {"molecular_target": "T cell receptor Vβ8.1 on murine T cells (mouse)", "test": "cell-based or functional assay"}}}
{"compound": "CC(C)Cc1ccc(C(C)C(=O)O)cc1", "note": "(stereo not drawn) [Ibuprofen]", "values": [{"measurement": "effect on SEB induced anorexia and malaise", "setting": "[1]", "result": "abrogate some of the anorexia and malaise"}, {"measurement": "effect on SEB induced fever and anorexia", "setting": "[2]", "result": "reduced febrile responses exceeding 105° F. and shortened the period of anorexia and inanition"}]}
{"compound": "Staphylococcus aureus enterotoxin A (SEA) (from UniProt P0A0L2 25-257)", "values": [{"measurement": "% of Total T Cells (Vβ use of tumor-draining LN T cells stimulated with SEA)", "setting": "[3]", "result": 34.3, "unit": "%"}, {"measurement": "% of Total T Cells (Vβ use of tumor-draining LN T cells stimulated with SEA)", "setting": "[4]", "result": 7.4, "unit": "%"}, {"measurement": "% of Total T Cells (Vβ use of tumor-draining LN T cells stimulated with SEA)", "setting": "[5]", "result": 0, "unit": "%"}, {"measurement": "% of Total T Cells (Vβ use of tumor-draining LN T cells stimulated with SEA)", "setting": "[6]", "result": "< 1", "unit": "%"}, {"measurement": "% of Total T Cells (Vβ use of tumor-draining LN T cells stimulated with SEA)", "setting": "[7]", "result": "< 1", "unit": "%"}, {"measurement": "% of Total T Cells (Vβ use of tumor-draining LN T cells stimulated with SEA)", "setting": "[8]", "result": "< 1", "unit": "%"}, {"measurement": "% of Total T Cells (Vβ use of tumor-draining LN T cells stimulated with SEA)", "setting": "[9]", "result": 29.9, "unit": "%"}, {"measurement": "% of Total T Cells (Vβ use of tumor-draining LN T cells stimulated with SEA)", "setting": "[10]", "result": 1.5, "unit": "%"}, {"measurement": "% of Total T Cells (Vβ use of tumor-draining LN T cells stimulated with SEA)", "setting": "[11]", "result": 0, "unit": "%"}, {"measurement": "% of Total T Cells (Vβ use of tumor-draining LN T cells stimulated with SEA)", "setting": "[12]", "result": "< 1", "unit": "%"}, {"measurement": "% of Total T Cells (Vβ use of tumor-draining LN T cells stimulated with SEA)", "setting": "[13]", "result": "< 1", "unit": "%"}, {"measurement": "% of Total T Cells (Vβ use of tumor-draining LN T cells stimulated with SEA)", "setting": "[14]", "result": 1.5, "unit": "%"}]}
{"compound": "staphylococcal enterotoxin B (SEB) (from UniProt P01552 28-266)", "values": [{"measurement": "% of Total T Cells (Vβ use of tumor-draining LN T cells stimulated with SEB)", "setting": "[3]", "result": 2.9, "unit": "%"}, {"measurement": "% of Total T Cells (Vβ use of tumor-draining LN T cells stimulated with SEB)", "setting": "[4]", "result": 0, "unit": "%"}, {"measurement": "% of Total T Cells (Vβ use of tumor-draining LN T cells stimulated with SEB)", "setting": "[15]", "result": 19.8, "unit": "%"}, {"measurement": "% of Total T Cells (Vβ use of tumor-draining LN T cells stimulated with SEB)", "setting": "[6]", "result": 0, "unit": "%"}, {"measurement": "% of Total T Cells (Vβ use of tumor-draining LN T cells stimulated with SEB)", "setting": "[7]", "result": 0, "unit": "%"}, {"measurement": "% of Total T Cells (Vβ use of tumor-draining LN T cells stimulated with SEB)", "setting": "[16]", "result": 4.8, "unit": "%"}, {"measurement": "% of Total T Cells (Vβ use of tumor-draining LN T cells stimulated with SEB)", "setting": "[8]", "result": 0, "unit": "%"}, {"measurement": "% of Total T Cells (Vβ use of tumor-draining LN T cells stimulated with SEB)", "setting": "[9]", "result": 32.5, "unit": "%"}, {"measurement": "% of Total T Cells (Vβ use of tumor-draining LN T cells stimulated with SEB)", "setting": "[10]", "result": 15, "unit": "%"}, {"measurement": "% of Total T Cells (Vβ use of tumor-draining LN T cells stimulated with SEB)", "setting": "[11]", "result": 0, "unit": "%"}, {"measurement": "% of Total T Cells (Vβ use of tumor-draining LN T cells stimulated with SEB)", "setting": "[12]", "result": 1.2, "unit": "%"}, {"measurement": "% of Total T Cells (Vβ use of tumor-draining LN T cells stimulated with SEB)", "setting": "[13]", "result": "< 1", "unit": "%"}, {"measurement": "% of Total T Cells (Vβ use of tumor-draining LN T cells stimulated with SEB)", "setting": "[14]", "result": "< 1", "unit": "%"}]}
